Measurements as given in the domain aggregation screens of Martell et al. (2025).

Test: soluble fraction after stress (log2 fold change); higher = more stays soluble; pooled small domains, quantitative proteomics
Conditions: stress: pH 4
In short: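 Values are on a log2 scale, where higher means more of the domain stayed soluble after pH 4 stress. They are fold changes in the soluble amount of each domain from pooled custom libraries, measured by high-throughput quantitative proteomics. The fold change is taken to reflect aggregation propensity.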

| Sequence | soluble fraction (log2) |
| --- | --- |
| HMSRGTLFVDVRGAVAKPGVYELPEKSRVFQAVEAAGGLLPEALERLVNQAAELTDGQQVYIPFEGEE | 0.429 |
| HMPPDLSEAIQKRIEGKTDEALEILRKLYNEYPESTEIITMLGRTLLDAEEYALAAFRLEQALDLGG | -1.22 |
| HMLDEIAGQKVRVLEEINNSEGTGKVMYRGVEWMARSVDDAVMAKDSIVTVQSISGVKLMVT | -0.498 |
| HMNPHGVAIIDVRKGKASTLRSLATSVRSLGEWDQLKIPIFNLESLTSLVLWHGLDAIVKEPESLQSNLIL | -0.222 |
| HMINIQYSYNDGKETLHNLSPEVIAEKIMDDPNGYHIVWKQGMVGWVNANDIDDIAKLLRQKK | -0.0166 |
| HMEETLEELGKEYESAFTMYEKLWSYYKKQNYHQVNHKRSERYEILLGFVREYHPEKVEYYRELL | -0.482 |
| HMDEQLAWLYRKINAFSEIDKALILLYLEDKKYDEIAETLGISSVNARVKMNRIKKRLKEMINDR | -1.02 |
| HMVSKEELANSIYENKTADELGNIVLRKGKYSGEMLRTIYVKDIGYLEWHSKQSYEYSNAVKWYLKKLE | -0.846 |
| HMNKNNLRNVSSKIRKSRRVLNLSQAELSKKLDISPSYLNLIESGKRPITVPLLIKLGNILGISLKDL | 0.201 |
| HMAEMLQDVLNMLSAKDREILVRYYYYYESVKQVAAEMQMSESAVKMRMSRARKKMQQELIDKG | -0.704 |
| HMIVVMKTSASERDLQEVIARIEQFGFATRSIVGSERATVSVLGAPLPDSLQEALERMPGVEEVVRITK | -0.0559 |
| HMTLGQHIQALRKEAGYSQEALGEALGVTRQSISKWESDQAIPEVDKLVTLSRLFQVPVGVLLQVEQP | -0.166 |
| HMSKPIREVAYETLKNAIVTGEIPAGSRIVETEYAERMHISRTPLREALRKLERDGLVEYVVRRGVVVRAF | -0.303 |
| HMAEPSTSYTQFMDQAKEGKIKRVDVQGRTLTVTPTEGATYKITAPGDLWMVEDLRKAGVQVYGQP | 0.076 |
| HMLSRNEWLVMEALWERPSTLMELVRQLGQEPPGWAKSTTATMVRRMEEKGLIRHEAGSKARVYHP | -0.325 |
| HMNTAIDGLIEKVGMFAMEKKAISVDQVKENFSINGEQAESVIKQLETIGVLGKKNEDGTHTVM | -0.0986 |
| HMKPSNLTSDERTQLLAQLKTAMGSDQYNQLRRQVGEEKLLEYVLDNVPGIQEEILGNRAVQENIDLH | -0.266 |
| HMSDQTYVKDPETGEIFRVHKRVWETGEFWRDPVWGNILGGVERGSELERLLREEGWRPLQQSLEGFPEQ | -0.276 |
| HMSPPVIQQGQDVRLIYKGTGFAVSNEGKALNTAADGQVARARTGGGQTVSGIARPGGIIEIT | 0.103 |
| HMKTITVEDEQAGKRLDKALAELFPHYSRSALEKLIKEGQVLVNKSFVKSKYSLKLGDEISLQFEQL | 0.0205 |
| HMKPKDILLPNFTNLTLDEAKAKAEEVKLNLNVSEEKYDVQIEEGKIISQDPKYQPNYTVKEGSTVNVVVS | 0.0508 |
| HMEVSYSLPRFHKGKNPYVDFYQVDPRTLRMRRKKFLLRGVRDAVLLEQRAADLVALLTERLHSGWNAWDD | -0.463 |
| HMQSMEIDENEIPSIDKLSEYIEYFKRIYNALFDDKQLAITNIDVLERHFANNFNTLRFKMDE | -0.534 |
| HMPMIQHFHRMISAALGISEKQIVQTLGLLNDGATIPFISRYRKEVTGGLDEVQIESIKTHYEKLNEIAK | -0.999 |
| HMLIPADETEAKVLSVLSREPLHVDEIRNQAGLPIEKISATLALMELKGMVRQVGGMNYVSV | -0.48 |
| HMGTVSSGSSSTDTPFSLGEIVRHKVFGEGVVLSIEGQGDASRIQINFNTAGTKWLVTAYADLEK | -1.28 |
| HMFIEMDEPEKILHRILNEANGKLELDKIGYRAEWPIGKVLTVLMSLELKGVVQSHPGKVYSL | -0.464 |
| HMKTLNKRQQDIINLAREEGFVTVEHLSEYFKVTQQTIRRDLGYLSENLYLARTYGGAFFQS | -0.535 |

| Sequence | soluble fraction (log2) |
| --- | --- |
| HMSGSKEQQIVILNNILERQLQAFGLQGNREFPMVTLKNIYNSLSKIIENAGLKNVENYFVNPEQGKQM | -0.394 |
| HMTQSQSLQSQFEQLEKAYQDNLHLLSPKQKLIIQEAGKIIQQLPQQAQIQAKVNLYQSLSAEISKESQQ | -0.107 |
| HMDESLIEEAKAMILQMKIEGSVRVRSNGLLEFRNPLFGSVYGRSVEELQEKLNKKVREQKSRI | 0.194 |
| HMYTPDYLSDLMVRMAHHSTAIEGNTLTQGETKSVLVDGYIPRAMDMRELNEVLNYKAFMTFLVE | -0.35 |
| HMEDELFSVARAAFPEYASKIHMNYGSTVQSIARQSGVLTVSETKQLNENQQISYLEYSNGAVVLALA | -0.306 |
| HMKYNETEFKNLVAKLYNGEIEIVGKFTGLSYPILVKDKYGIMLSQKANLILNYRPTINIALNKTEYAMN | -0.4 |
| HMYELREGDVVSVRILSQTGQNSYIASFAGGRFSVTSERAFAPGTVFSASVSLKDGTLVLSPL | 0.0111 |
| HMNEKMKEIGLRIKELRELSDISAQGMADHLKIPLETYQEYEDGKKDIPASILFEISQKMEVDMGLLLTGE | -0.253 |
| HMLALKSGQVVVGTIIRRLDNTTAMLRIGNQLFETSFAKGLPKSNHILLRYDAMQGNRFIFTMVE | -0.063 |
| HMIVMPELRGKDLKEAERLLSSHNLRYELVDSVYDKSLAPGVVVEMVPQSGNTVKPGRIIFLSINA | -0.272 |
| HMSPRADRSVNLDVGETVQIDDWGADGTAQIRYRGAPWTAVLRPGHTPHPGPHRVIELVGSRLLVEP | -0.746 |
| HMTVSLLQTRQRLQALADLGHYKGDLGAAWGPDAIEALKKAQATLGVTVDGKWGPQTEDAIQVALKVQ | -0.0459 |
| HMTGGMVTYIIEKGEGFFSLERKFGLSENELIKLNPSLKSGLKSEMQINIPKENYDRYVASS | 0.206 |
| HMASANMPDVLGLDAETAKQVLAAKGFTKVEIYPMESSEPANRVVRQSEDRDTMVALTKEILLGVSNGS | -0.0377 |
| HMEEQIEVPVQINGKVRSKLTVAPETDEKQIEALALADPKVQQQLEGKRVLKVIVAQKRLVNIVA | -0.035 |
| HMPPNPELGKKLLKLRKEFKMTQDDVANILGMSRTSFSKYENGIANPPLQVMRKLASIYNVGLEYLI | -0.0729 |
| HMNMLGSNIKYLRNRHKLSQQELSEKLGVPRSSLSDYERGHTQVGLDSLIKLADIFDVKIDDLLRSNLSHR | -0.261 |
| HMFRMTPQRMAILAEVQNAERHLTAAEIYERVRRKYPTIAYGTVYRTLHLLAKHGLIQEFPFGDNASLFDR | -0.0123 |
| HMSDRESYGRYRNVSLTLSEYESLKNEYPLYADKYIERLSEYMETAGKHYNNHYATILSWLSKDIK | -0.8 |
| HMTQNSAITNRVLYMQRTLRQYGYAVPESGNFDRTTRAHAAEFLYNATGLPVRENQSVQEFYRAFQRVQG | 0.203 |
| HMSSSYMVRITTSVLNVRKGPGTNYGITTKVKKGEVYTIVAEEKNGNTTWGKLKSGTGYISLGYTER | -0.145 |
| HMTKASYKITTPSGVNVREGAGKRYAVRKAYPKGKTVTVTQTKEVNGNLWGKTSDGWFAIKYQGAVYASA | 0.2 |
| HMDNVQLRNFAIKATEASIIYLDQEQRNFFWYNNNKKLMTVPFDENPYSAFAAYLKTDEGSEVYKAIEKKF | -0.504 |
| HMSNLENSLNESLSLLKSNKYNEALEILKKIEIEDSRVFFLLGTIYSVMKNINLGEEFLIKASK | -1.32 |
| HMQVFDSNEIDEVVKKVIENNPQAVADFKKGKSNALQFLAGQVMRETKGRFNPNVVQERIRLLLT | 0.256 |
| HMKLASIGDNIHTLRKNKGLTQSQLAGKLGVNVDTISNYEKGVSTPDFDIVEKLVNIFNVDAHSLLFK | -0.351 |
| HMIKKAILPVAGLGTRFLPASKSIPKEMVTVVDRPAIEYVVREAVEAGIEQIILVTHSSKASIENYFDR | -0.217 |
